Legend:
[1] = target: CFP from CFP-empty plasmid (pECFP); test: FRET by acceptor photobleaching; negative control, cotransfection of empty CFP and YFP plasmids in MDA-MB231 cells
[2] = target: CFP-tagged CD44 (human full length CD44s cDNA fused in frame into pECFP, expressed in MDA-MB231 cells) (human) (UniProt P16070); test: FRET by acceptor photobleaching, confocal microscopy, MDA-MB231 cells coexpressing CFP-CD44 and YFP-OPN
[3] = target: CFP-tagged CD44 (human full length CD44s cDNA fused in frame into pECFP, expressed in MDA-MB231 cells) (human) (UniProt P16070); test: FRET by acceptor photobleaching, CFP-CD44/YFP-OPN in MDA-MB231 cells, in the presence of mutated OPN-R3 RNA aptamer (control)
[4] = target: CFP-tagged CD44 (human full length CD44s cDNA fused in frame into pECFP, expressed in MDA-MB231 cells) (human) (UniProt P16070); test: FRET by acceptor photobleaching, CFP-CD44/YFP-OPN in MDA-MB231 cells, in the presence of blocking antibody to αvβ3 integrin

## YFP from YFP-empty plasmid (pEYFP)
[1]
  FRET efficiency: 0.23%

## YFP-tagged OPN (human OPN cDNA fused in frame into pEYFP, expressed in MDA-MB231 cells) (from UniProt P10451 17-314) (ligand)
[2]
  FRET efficiency: 24.2%
[3]
  FRET efficiency: 23.1%
[4]
  FRET efficiency: 19.6%
